The text below walks through data of article PMC12095048 (Oncogene, 2025).

The target of experiment [1] is His-CHK2 (WT), full length (UniProt O96017 1-543). The experiment can be described thus: pull-down.
For experiment [2], the target named is His-HIF-1α (WT), full length (UniProt Q16665 1-826). The experiment can be described thus: pull-down.
His-HIF-1α (WT), full length, sequence (Q16665 whole entry): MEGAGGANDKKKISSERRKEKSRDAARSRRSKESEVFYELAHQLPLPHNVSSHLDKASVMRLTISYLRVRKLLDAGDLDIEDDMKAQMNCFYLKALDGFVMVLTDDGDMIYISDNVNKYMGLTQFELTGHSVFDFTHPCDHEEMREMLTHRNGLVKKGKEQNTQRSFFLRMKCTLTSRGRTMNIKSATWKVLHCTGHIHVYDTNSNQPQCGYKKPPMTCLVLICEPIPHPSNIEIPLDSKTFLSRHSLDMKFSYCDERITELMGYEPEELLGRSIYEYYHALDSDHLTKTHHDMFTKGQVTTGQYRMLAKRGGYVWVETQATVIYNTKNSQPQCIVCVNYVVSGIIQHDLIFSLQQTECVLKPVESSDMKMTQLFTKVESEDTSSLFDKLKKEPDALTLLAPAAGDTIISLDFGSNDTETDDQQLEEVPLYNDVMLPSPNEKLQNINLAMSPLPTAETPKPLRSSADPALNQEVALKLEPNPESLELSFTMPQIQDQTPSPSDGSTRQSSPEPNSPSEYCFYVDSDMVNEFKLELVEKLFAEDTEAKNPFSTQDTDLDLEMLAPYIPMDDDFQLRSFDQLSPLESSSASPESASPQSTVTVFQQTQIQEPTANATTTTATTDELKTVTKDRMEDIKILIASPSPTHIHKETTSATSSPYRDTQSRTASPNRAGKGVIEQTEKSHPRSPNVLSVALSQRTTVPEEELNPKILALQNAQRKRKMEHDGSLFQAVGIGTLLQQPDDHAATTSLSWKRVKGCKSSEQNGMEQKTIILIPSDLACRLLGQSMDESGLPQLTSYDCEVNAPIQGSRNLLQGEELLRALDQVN

B1: GST-HIF-1α (aa 81–200) (domain or fragment)
chain: not shown
Regarding B1, the binding result in experiment [1] is given as “binds”.

B2: GST-CHK2 (aa 1–193) (domain or fragment, UniProt O96017 1-193, looked up)
chain: MSRESDVEAQQSHGSSACSQPHGSVTQSQGSSSQSQGISSSSTSTMPNSSQSSHSSSGTLSSLETVSTQELYSIPEDQEPEDQEPEEPTPAPWARLWALQDGFANLECVNDNYWFGRDKSCEYCFDEPLLKRTDKYRTYSKKHFRIFREVGPKNSYIAYIEDHSGNGTFVNTELVGKGKRRPLNNNSEIALSL
Take B2: the binding result in experiment [2] is “binds”.

B3: GST-HIF-1α (aa 400–575) (domain or fragment, UniProt Q16665 400-575, looked up)
chain: LAPAAGDTIISLDFGSNDTETDDQQLEEVPLYNDVMLPSPNEKLQNINLAMSPLPTAETPKPLRSSADPALNQEVALKLEPNPESLELSFTMPQIQDQTPSPSDGSTRQSSPEPNSPSEYCFYVDSDMVNEFKLELVEKLFAEDTEAKNPFSTQDTDLDLEMLAPYIPMDDDFQLR
B3: the binding result in experiment [1] was “binds”.
